What all share (experiment): CD
The subject of series [1] is spZαE3L (swinepox virus).
Series [2] concerns hZαADAR1 (Homo sapiens).
The subject of series [3] is lsZαE3L (lumpy skin disease virus).

This is an account of results in article PMC2190711.

As for d(CG)n DNA for CD B-to-Z conversion, the binding signal (% B-to-Z conversion) in series [1] stood at 65; in series [2], 100; in series [3], 90.
